Laboratory results taken from US20090214489A1 (published 2009).
Where no end group is shown, it is not given here.

T1: full length human TPO-R on transfected Ba/F3 cells (human, UniProt P40238 26-635)
T1 sequence (looked up): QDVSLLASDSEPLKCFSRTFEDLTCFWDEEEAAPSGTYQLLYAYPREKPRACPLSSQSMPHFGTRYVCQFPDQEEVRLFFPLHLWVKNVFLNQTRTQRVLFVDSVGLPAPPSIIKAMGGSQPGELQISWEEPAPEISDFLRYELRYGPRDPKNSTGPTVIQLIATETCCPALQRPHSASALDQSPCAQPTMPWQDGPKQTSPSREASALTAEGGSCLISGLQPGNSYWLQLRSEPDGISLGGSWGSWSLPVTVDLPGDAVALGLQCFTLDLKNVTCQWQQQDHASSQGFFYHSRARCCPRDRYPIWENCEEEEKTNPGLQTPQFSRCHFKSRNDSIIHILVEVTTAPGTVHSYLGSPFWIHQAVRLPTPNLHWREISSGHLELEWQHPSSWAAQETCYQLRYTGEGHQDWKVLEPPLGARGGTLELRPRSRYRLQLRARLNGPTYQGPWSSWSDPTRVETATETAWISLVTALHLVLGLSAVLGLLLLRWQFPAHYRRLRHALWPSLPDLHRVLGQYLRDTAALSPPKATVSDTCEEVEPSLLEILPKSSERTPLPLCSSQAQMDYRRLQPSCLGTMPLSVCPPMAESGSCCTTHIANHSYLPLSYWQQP


Experiments:
[1] = target: murine TPO receptor on Balb/C mouse marrow cells (mouse) (UniProt Q08351); assay: cell-based or functional assay
[2] = target: T1, full length human TPO-R on transfected …; assay: cell-based or functional assay

Row | activity (assay not given) [2] [µm] | Molecule | other results
1 | – | rhuTPO (from UniProt P40225 22-353) (ligand) | colonies of 3-5 large cells, mouse marrow in methylcellulose, 1 nM TPO, #1-1 [1]: 15 colonies; colonies of 3-5 large cells, mouse marrow in methylcellulose, 1 nM TPO, #1-2 [1]: 12 colonies; colonies of 3-5 large cells, mouse marrow in methylcellulose, 1 nM TPO, #2-1 [1]: 16 colonies; colonies of 3-5 large cells, mouse marrow in methylcellulose, 1 nM TPO, #2-2 [1]: 13 colonies; colonies of 6-12 large cells, mouse marrow in methylcellulose, 1 nM TPO, #1-1 [1]: 6 colonies; colonies of 6-12 large cells, mouse marrow in methylcellulose, 1 nM TPO, #1-2 [1]: 1 colonies; colonies of 6-12 large cells, mouse marrow in methylcellulose, 1 nM TPO, #2-1 [1]: 8 colonies; colonies of 6-12 large cells, mouse marrow in methylcellulose, 1 nM TPO, #2-2 [1]: 3 colonies
2 | > 10 | CELVGPSLMSWLTC (not fully specified; cysteine pairing not given here) [Table 8 compound, drawing CHEM-US-00055] | –
3 | > 10 | CTLAEFLASGVEQC (not fully specified; cysteine pairing not given here) [Table 8 compound, drawing CHEM-US-00057] | –
4 | > 10 | CTLGQWLQMGMC (not fully specified; cysteine pairing not given here) [Table 8 compound, drawing CHEM-US-00051] | –
5 | > 10 | REGPTLRQWLMSRS (not fully specified) [Table 8 compound, drawing CHEM-US-00061] | –
6 | > 10 | CTRAQFLKGC (not fully specified; cysteine pairing not given here) [Table 8 compound, drawing CHEM-US-00044] | –
7 | > 10 | CQRADLINFC (not fully specified; cysteine pairing not given here) [Table 8 compound, drawing CHEM-US-00048] | –
8 | > 10 | CGTEGPTLSTWLDC (not fully specified; cysteine pairing not given here) [Table 8 compound, drawing CHEM-US-00054] | –
9 | > 10 | CNRSQLLAAC (not fully specified; cysteine pairing not given here) [Table 8 compound, drawing CHEM-US-00046] | –
10 | > 10 | REGPTLRQWM (not fully specified) [Table 8 compound, drawing CHEM-US-00060] | –
11 | > 10 | CTLKEWLVSHEVWC (not fully specified; cysteine pairing not given here) [Table 8 compound, drawing CHEM-US-00058] | –
12 | > 10 | CTLREFLDPTTAVC (not fully specified; cysteine pairing not given here) [Table 8 compound, drawing CHEM-US-00053] | –
13 | > 10 | CTSTQWLLAC (not fully specified; cysteine pairing not given here) [Table 8 compound, drawing CHEM-US-00047] | –
14 | > 10 | CLTGPFVTQWLYEC (not fully specified; cysteine pairing not given here) [Table 8 compound, drawing CHEM-US-00052] | –
15 | > 10 | CLLSEFLAGQQC (not fully specified; cysteine pairing not given here) [Table 8 compound, drawing CHEM-US-00049] | –
16 | > 10 | CSLKEFLHSGLMQC (not fully specified; cysteine pairing not given here) [Table 8 compound, drawing CHEM-US-00056] | –
17 | > 10 | CNINQLRSIC (not fully specified; cysteine pairing not given here) [Table 8 compound, drawing CHEM-US-00045] | –
